# Results published in article PMC10980755, “Cooperative nucleic acid binding by Poly ADP-ribose polymerase 1”.
# B1: ds19-mer DNA (dsDNA)
# DNA 1: CGTACGCGGGTTTAAACGA
# DNA 2: TCGTTTAAACCCGCGTACG
# Key:
# ∆Zn1∆Zn2-PARP1 [1] = target: T1, ∆Zn1∆Zn2-PARP1 (UniProt P09874 216-1014, del1-215); experiment: EMSA; monomer-equivalent Kmono; n=1.7±0.1; ω=56.7±14.4; EMSA: 25 mM Tris pH 8.0, 150 mM NaCl, 50 mM arginine, 1 mM EDTA, 0.1 mM TCEP, 1 mg/mL BSA, 20 °C, 30 min; 0.06 µM nucleic acid; conditions: protein: recombinant; tags: His; label: 5'-Cy3
# ∆CAT-PARP1 [2] = target: T2, ∆CAT-PARP1 (UniProt P09874 1-662, del663-1014); experiment: EMSA; monomer-equivalent Kmono; n=1.9±0.1; ω=49.0±12.9; EMSA: 25 mM Tris pH 8.0, 150 mM NaCl, 50 mM arginine, 1 mM EDTA, 0.1 mM TCEP, 1 mg/mL BSA, 20 °C, 30 min; 0.06 µM nucleic acid; conditions: protein: recombinant; tags: His; label: 5'-Cy3
# WT-PARP1 (full-length) [3] = target: T3, WT-PARP1 (full-length) (UniProt P09874 1-1014); experiment: EMSA; monomer-equivalent Kmono; n=2.2±0.1; ω=51.4±10.1; EMSA: 25 mM Tris pH 8.0, 150 mM NaCl, 50 mM arginine, 1 mM EDTA, 0.1 mM TCEP, 1 mg/mL BSA, 20 °C, 30 min; 0.06 µM nucleic acid; conditions: protein: recombinant; tags: His; label: 5'-Cy3
# ∆CAT-PARP1 [4] = target: T2, ∆CAT-PARP1; experiment: EMSA; monomer-equivalent Kmono; n=1.8±0.1; ω=86.1±20.3; EMSA: 25 mM Tris pH 8.0, 150 mM NaCl, 50 mM arginine, 1 mM EDTA, 0.1 mM TCEP, 1 mg/mL BSA, 20 °C, 30 min; 0.06 µM nucleic acid; conditions: protein: recombinant; tags: His; label: 5'-32P
# WT-PARP1 (full-length) [5] = target: T3, WT-PARP1 (full-length); experiment: EMSA; monomer-equivalent Kmono; n=1.9±0.2; ω=67.3±10.8; EMSA: 25 mM Tris pH 8.0, 150 mM NaCl, 50 mM arginine, 1 mM EDTA, 0.1 mM TCEP, 1 mg/mL BSA, 20 °C, 30 min; 0.06 µM nucleic acid; conditions: protein: recombinant; tags: His; label: 5'-32P
# ∆Zn1∆Zn2-PARP1 [6] = target: T1, ∆Zn1∆Zn2-PARP1; experiment: EMSA; monomer-equivalent Kmono; n=2.9±0.2; ω=104.3±31.1; EMSA: 25 mM Tris pH 8.0, 150 mM NaCl, 50 mM arginine, 1 mM EDTA, 0.1 mM TCEP, 1 mg/mL BSA, 20 °C, 30 min; 0.06 µM nucleic acid; conditions: protein: recombinant; tags: His; label: 5'-32P
# WT-PARP1 (full-length) [7] = target: T3, WT-PARP1 (full-length); experiment: EMSA; monomer-equivalent Kmono; n=4.1±0.2; ω=82.6±20.5; EMSA: 25 mM Tris pH 8.0, 150 mM NaCl, 50 mM arginine, 1 mM EDTA, 0.1 mM TCEP, 1 mg/mL BSA, 20 °C, 30 min; 0.06 µM nucleic acid; conditions: protein: recombinant; tags: His; label: 5'-32P on one strand (EMSA); unlabeled in AUC; blunt
# ∆CAT-PARP1 [8] = target: T2, ∆CAT-PARP1; experiment: EMSA; monomer-equivalent Kmono; n=3.9±0.2; ω=139.9±59.5; EMSA: 25 mM Tris pH 8.0, 150 mM NaCl, 50 mM arginine, 1 mM EDTA, 0.1 mM TCEP, 1 mg/mL BSA, 20 °C, 30 min; 0.06 µM nucleic acid; conditions: protein: recombinant; tags: His; label: 5'-32P on one strand (EMSA); unlabeled in AUC; blunt
# ∆Zn1∆Zn2-PARP1 [9] = target: T1, ∆Zn1∆Zn2-PARP1; experiment: sedimentation velocity AUC; 10 mM Tris pH 8.0, 100 mM NaCl, 4 °C; 1.8 µM DNA, 7.2 µM protein; reaction boundary, rapid equilibrium; EMSA: 25 mM Tris pH 8.0, 150 mM NaCl, 50 mM arginine, 1 mM EDTA, 0.1 mM TCEP, 1 mg/mL BSA, 20 °C, 30 min; 0.06 µM nucleic acid; conditions: protein: recombinant; tags: His; label: 5'-32P on one strand (EMSA); unlabeled in AUC; blunt
# ∆CAT-PARP1 [10] = target: T2, ∆CAT-PARP1; experiment: EMSA; Kmono; n=1.0±0.1; EMSA: 25 mM Tris pH 8.0, 150 mM NaCl, 50 mM arginine, 1 mM EDTA, 0.1 mM TCEP, 1 mg/mL BSA, 20 °C, 30 min; 0.06 µM nucleic acid; conditions: protein: recombinant; tags: His; label: 5'-32P
# WT-PARP1 (full-length) [11] = target: T3, WT-PARP1 (full-length); experiment: EMSA; monomer-equivalent Kmono; n=1.8±0.1; ω=24.7±8.6; EMSA: 25 mM Tris pH 8.0, 150 mM NaCl, 50 mM arginine, 1 mM EDTA, 0.1 mM TCEP, 1 mg/mL BSA, 20 °C, 30 min; 0.06 µM nucleic acid; conditions: protein: recombinant; tags: His; label: 5'-32P
# T1 sequence (P09874 216-1014, stated change not applied): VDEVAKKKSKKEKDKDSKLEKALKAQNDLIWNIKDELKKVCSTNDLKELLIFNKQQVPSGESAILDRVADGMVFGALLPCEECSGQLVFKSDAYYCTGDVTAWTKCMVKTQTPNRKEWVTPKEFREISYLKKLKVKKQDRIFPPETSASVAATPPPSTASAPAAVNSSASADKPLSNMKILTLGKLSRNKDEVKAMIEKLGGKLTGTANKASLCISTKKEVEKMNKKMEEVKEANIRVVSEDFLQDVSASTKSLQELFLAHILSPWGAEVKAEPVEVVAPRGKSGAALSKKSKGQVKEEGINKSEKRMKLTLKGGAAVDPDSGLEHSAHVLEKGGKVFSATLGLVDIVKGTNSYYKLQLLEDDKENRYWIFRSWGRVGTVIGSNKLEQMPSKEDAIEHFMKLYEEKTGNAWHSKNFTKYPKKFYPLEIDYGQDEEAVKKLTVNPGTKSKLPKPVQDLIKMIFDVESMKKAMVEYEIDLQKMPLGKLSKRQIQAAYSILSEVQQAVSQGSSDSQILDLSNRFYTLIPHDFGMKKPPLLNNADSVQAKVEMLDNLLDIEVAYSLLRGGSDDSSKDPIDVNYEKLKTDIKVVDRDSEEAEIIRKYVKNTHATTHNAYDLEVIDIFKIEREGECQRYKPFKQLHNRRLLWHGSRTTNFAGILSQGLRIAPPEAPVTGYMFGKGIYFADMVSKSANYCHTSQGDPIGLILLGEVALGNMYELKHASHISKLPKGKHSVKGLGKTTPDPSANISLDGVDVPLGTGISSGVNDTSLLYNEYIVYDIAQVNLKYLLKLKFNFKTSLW
# T3 sequence (P09874 whole entry): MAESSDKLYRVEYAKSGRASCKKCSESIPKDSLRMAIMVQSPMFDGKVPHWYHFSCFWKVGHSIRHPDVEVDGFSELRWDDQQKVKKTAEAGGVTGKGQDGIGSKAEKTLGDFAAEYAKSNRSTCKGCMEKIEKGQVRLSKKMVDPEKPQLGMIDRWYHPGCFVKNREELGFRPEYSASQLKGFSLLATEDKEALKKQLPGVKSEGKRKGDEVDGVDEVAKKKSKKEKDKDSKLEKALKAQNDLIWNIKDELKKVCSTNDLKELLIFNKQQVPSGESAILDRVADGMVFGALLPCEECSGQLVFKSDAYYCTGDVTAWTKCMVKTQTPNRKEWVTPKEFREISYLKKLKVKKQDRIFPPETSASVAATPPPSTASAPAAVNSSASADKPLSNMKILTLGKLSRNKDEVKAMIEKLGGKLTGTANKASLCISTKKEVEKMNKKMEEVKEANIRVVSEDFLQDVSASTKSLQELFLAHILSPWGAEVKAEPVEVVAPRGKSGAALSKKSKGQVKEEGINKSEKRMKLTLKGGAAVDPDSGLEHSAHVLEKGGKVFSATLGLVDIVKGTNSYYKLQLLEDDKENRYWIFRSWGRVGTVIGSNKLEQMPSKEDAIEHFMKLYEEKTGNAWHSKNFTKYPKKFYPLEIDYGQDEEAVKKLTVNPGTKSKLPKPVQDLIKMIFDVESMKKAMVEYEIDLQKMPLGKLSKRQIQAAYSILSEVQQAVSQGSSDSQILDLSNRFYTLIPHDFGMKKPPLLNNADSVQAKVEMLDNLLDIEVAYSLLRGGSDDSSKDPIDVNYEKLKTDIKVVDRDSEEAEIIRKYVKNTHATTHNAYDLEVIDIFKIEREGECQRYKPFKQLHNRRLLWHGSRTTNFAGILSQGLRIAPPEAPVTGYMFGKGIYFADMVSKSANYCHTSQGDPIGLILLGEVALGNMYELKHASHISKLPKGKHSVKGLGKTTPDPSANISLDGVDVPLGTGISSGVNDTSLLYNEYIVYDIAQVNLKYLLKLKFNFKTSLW
# T2 sequence (P09874 1-662, stated change not applied): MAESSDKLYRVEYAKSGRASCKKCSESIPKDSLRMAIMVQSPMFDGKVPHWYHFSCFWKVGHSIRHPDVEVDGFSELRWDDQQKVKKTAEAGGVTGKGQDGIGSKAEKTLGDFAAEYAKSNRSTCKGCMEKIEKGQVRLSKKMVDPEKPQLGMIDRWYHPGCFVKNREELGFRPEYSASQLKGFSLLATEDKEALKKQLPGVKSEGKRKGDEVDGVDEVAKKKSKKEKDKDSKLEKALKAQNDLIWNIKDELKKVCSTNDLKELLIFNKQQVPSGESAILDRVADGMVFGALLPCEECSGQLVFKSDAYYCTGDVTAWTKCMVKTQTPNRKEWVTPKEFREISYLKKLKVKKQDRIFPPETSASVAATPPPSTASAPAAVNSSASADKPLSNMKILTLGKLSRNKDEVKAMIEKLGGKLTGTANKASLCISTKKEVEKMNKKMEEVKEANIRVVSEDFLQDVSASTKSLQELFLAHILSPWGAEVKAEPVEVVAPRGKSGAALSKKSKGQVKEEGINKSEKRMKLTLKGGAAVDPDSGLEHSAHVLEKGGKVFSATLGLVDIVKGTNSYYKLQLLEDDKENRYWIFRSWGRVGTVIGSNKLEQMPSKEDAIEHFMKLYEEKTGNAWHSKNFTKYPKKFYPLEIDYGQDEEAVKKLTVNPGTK
binder,measurement,setting,value
TTTTTTTTTTTTTTTTTTTT (ssDNA) [Cy3-T20 DNA],Ka,∆Zn1∆Zn2-PARP1 [1],2.5e+06 M⁻¹
same,Ka,∆CAT-PARP1 [2],3.3e+06 M⁻¹
same,Ka,WT-PARP1 (full-length) [3],1.3e+07 M⁻¹
UUUUUUUUUUUUUUUUUUUU (ssRNA) [U20 RNA],Ka,∆CAT-PARP1 [4],6.6e+06 M⁻¹
same,Ka,WT-PARP1 (full-length) [5],2.1e+08 M⁻¹
same,Ka,∆Zn1∆Zn2-PARP1 [6],9.1e+07 M⁻¹
B1,Ka,WT-PARP1 (full-length) [7],1.2e+07 M⁻¹
same,Ka,∆CAT-PARP1 [8],1.3e+07 M⁻¹
same,binding result,∆Zn1∆Zn2-PARP1 [9],binds
CGTACGCGGGTTTAAACGA (ssDNA) [ss19-mer DNA],Ka,∆CAT-PARP1 [10],114000 M⁻¹
same,Ka,WT-PARP1 (full-length) [11],3.3e+06 M⁻¹
